Measurements reported in patent US6365158.

How the values were obtained:
[1] = target: Crotalus durissus terrificus (C.d.t.) venom; experiment: ELISA, C.d.t. venom-coated wells, 1:5
[2] = target: Crotalus durissus terrificus (C.d.t.) venom; experiment: ELISA, C.d.t. venom-coated wells, 1:25
[3] = target: Crotalus durissus terrificus (C.d.t.) venom; experiment: ELISA, C.d.t. venom-coated wells, 1:125
[4] = target: Crotalus durissus terrificus (C.d.t.) venom; experiment: ELISA, C.d.t. venom-coated wells, 1:625
[5] = target: Crotalus durissus terrificus (C.d.t.) venom; experiment: ELISA, C.d.t. venom-coated wells, 1:3125
[6] = target: Crotalus durissus terrificus (C.d.t.) venom; experiment: ELISA, C.d.t. venom-coated wells, IgY 1:62,500
[7] = target: Crotalus durissus terrificus (C.d.t.) venom; experiment: ELISA, C.d.t. venom-coated wells, IgY 1:312,500
[8] = target: Crotalus durissus terrificus (C.d.t.) venom; experiment: ELISA, wells coated with 5 µg/ml C.d.t. venom, 1:5
[9] = target: Crotalus durissus terrificus (C.d.t.) venom; experiment: ELISA, wells coated with 5 µg/ml C.d.t. venom, 1:25
[10] = target: Crotalus durissus terrificus (C.d.t.) venom; experiment: ELISA, wells coated with 5 µg/ml C.d.t. venom, 1:125
[11] = target: Crotalus durissus terrificus (C.d.t.) venom; experiment: ELISA, wells coated with 5 µg/ml C.d.t. venom, 1:625
[12] = target: Crotalus durissus terrificus (C.d.t.) venom; experiment: ELISA, wells coated with 5 µg/ml C.d.t. venom, 1:3125
[13] = target: Crotalus durissus terrificus (C.d.t.) venom; experiment: ELISA, wells coated with 5 µg/ml C.d.t. venom, undiluted

Substance: preimmune IgY (antibody)
- absorbance (ELISA) (absorbance at 412 nm) [1]: < 0
- absorbance (ELISA) (absorbance at 412 nm) [2]: 0.016
- absorbance (ELISA) (absorbance at 412 nm) [3]: < 0
- absorbance (ELISA) (absorbance at 412 nm) [4]: < 0
- absorbance (ELISA) (absorbance at 412 nm) [5]: < 0
- absorbance (ELISA) (absorbance at 412 nm) [6]: 0.001
- absorbance (ELISA) (absorbance at 412 nm) [7]: 0.01
- absorbance (ELISA) (absorbance at 412 nm) [8]: < 0
- absorbance (ELISA) (absorbance at 412 nm) [9]: 0
- absorbance (ELISA) (absorbance at 412 nm) [10]: 0.003
- absorbance (ELISA) (absorbance at 412 nm) [11]: 0
- absorbance (ELISA) (absorbance at 412 nm) [12]: 0.002
- absorbance (ELISA) (absorbance at 412 nm) [13]: 0.003
